± gives the uncertainty stated by the source.

The data set can be described thus: amyloid nucleation score (Sup35N fusion, yeast selection) (log enrichment); library NNK1; higher = more nucleation; inactive = no reads after selection. In short, it runs like this:
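The nucleation score, computed with DiMSum, is the log enrichment of output over input reads, centred on the mode score of non-aggregating sequences. Sequences with under 100 input reads were dropped. Reads were generated by Illumina sequencing of plasmid inserts from psi-negative yeast with Sup35N fused to peptides of 20 random codons, induced with 100 μM copper sulfate for 24 hours and grown 7 days at 30°C on medium lacking adenine and uracil.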
YLTWYNRYCVRYITNYHPMK showed an amyloid nucleation score of 5.96 ± 0.079.
The substance ASDMSCMQSNSYFNLWTYTM registered an amyloid nucleation score of 1.32 ± 0.4.
On to ADFKEFECDLARPLLGIKFL, for which the amyloid nucleation score worked out at 0.054 ± 0.91.
The substance PWTTG yielded an amyloid nucleation score of 0.298 ± 0.24.
On to ESNMGNGSRGIDV, for which the amyloid nucleation score is 0.821 ± 1.1.
For SWNKGLREED the value was 0.562 ± 0.72; for VRCLLRYLLLESPQFINV, 1.7 ± 0.36; for LNSLNVGLVEDKQYILYER, 1.68 ± 0.39.
For the substance WIVHCVEFALYGLGF, the amyloid nucleation score is 1.33 ± 0.79.
Take AIAGSAMVEGAH: the amyloid nucleation score stood at 0.985 ± 0.77.
To DFARNQDGSFVWN belongs -0.575 ± 0.36; to DGSNRHLSRSMVGRGRT, 0.335 ± 0.8.
For AFYSEMGFSDVYILLVYSMM the value was 4.45 ± 0.073; for LRSFIGRRS, 0.272 ± 0.32; for QGIVAVLED, “inactive”.
Consider FFNDPA, for which the amyloid nucleation score was -0.311 ± 0.47.
As for MQNMNEVSIINVAERVVNGG, the amyloid nucleation score entry was “inactive”.
Turning to TYVSNNPKGNPTLHAYFSF, the amyloid nucleation score was 0.68 ± 0.97.
Consider FAESSVVSFHLCRQMFASTA, for which the amyloid nucleation score is -0.88 ± 0.52.
With CDWSCSDSVCFITLCKYDDC, the amyloid nucleation score came to 6.921 ± 0.047.
To SMVLFGRISWIGEVLLL belongs 4.99 ± 0.089; to SMLDNDTSNMLEMPIGMYVA, “inactive”; to AAWMWWTLLSTY, -0.377 ± 0.37.
As for YLINLRFCEREAGFNFLLGR, the amyloid nucleation score was -1.12 ± 2.7.
As for DGFALGMSRC, the amyloid nucleation score entry was “inactive”.
To WHELRMCIVMDFLLMLQKMI belongs 1.79 ± 0.44.
To RLRFLNYTDAG belongs -1.2 ± 1.5; to YGSGPNDWLYVWGNSLWQKV, -0.106 ± 0.66.
SLKVTAPTQMGQCVVGGVYH showed an amyloid nucleation score of -0.279 ± 0.88.
To YGFLNPTSSR belongs 0.632 ± 0.5.
For MSLNRDNDYSKLLFGSKVSQ the value was 0.477 ± 0.43; for CSWDYMVVR, -0.137 ± 0.98.
With AYCGSWLQYL, the amyloid nucleation score was -0.231 ± 0.76.
For CQNFDDI the value was 0.117 ± 0.9.
As to KVCLRRAAYYRVLVHSCHFR, the amyloid nucleation score was -0.585 ± 0.43.
For MCGFF the value was -0.178 ± 0.57; for VVRAFLTLILAVIDEENGSE, -1.42 ± 2.7.
For LLVVIQICLM the value was 2.9 ± 0.14.
With ISCQQSE, the amyloid nucleation score was -1.57 ± 2.4.
As for GIHSLFMVAIYFAYWLRKWV, the amyloid nucleation score was -0.877 ± 1.6.
To CENVIEFNENVKG belongs 0.503 ± 0.29; to HCHFIFGGMIGS, -0.144 ± 1.2; to GIVRVKSTCERSPDSATYDL, -0.205 ± 0.91.
To SLDYLIFPVLDDGKKYMFVM belongs 1.33 ± 0.46; to GNICSTLAINVGLIFSKECV, “inactive”; to PVGVKGVQMVLS, -0.226 ± 0.83.
HEFHRLDVAVYRG displayed an amyloid nucleation score of -0.132 ± 0.29.
Take SYLTGAEFFSTVRK: the amyloid nucleation score is -0.745 ± 1.7.
Substance TVRCSMGYILYRWVHSRLGR showed an amyloid nucleation score of 1.4 ± 0.48.
For VFFSYINCLRF the value was 0.218 ± 0.45; for QVLSHSKHNIVLDYHLETCG, 1.84 ± 0.38; for VSVFLGSGHRRARGW, -0.482 ± 0.47.
In turn, VVSSRSIMGTVRMNEKVVAT yielded an amyloid nucleation score of -0.563 ± 0.46.
In turn, KWVEIITLCMEIWNLYIVCE had an amyloid nucleation score of -0.048 ± 0.92.
Substance FLNVARQV yielded an amyloid nucleation score of 0.101 ± 1.4.
Substance RLRNLYLQSFDRLCAVCKGY came in with an amyloid nucleation score of 0.197 ± 0.35.
Consider VTVLSSVLIL, for which the amyloid nucleation score was determined as 0.332 ± 0.27.
The substance FDNLIVYVTVYFFLTYAPFV yielded an amyloid nucleation score of 1.41 ± 0.26.
As to VSLRAAWNLC, the amyloid nucleation score was 0.606 ± 0.71.
Consider LDYPISVIVPGTDQSLEFLP, for which the amyloid nucleation score result is “inactive”.
In turn, VILRIIILYCLYHVWISGM showed an amyloid nucleation score of 0.177 ± 0.34.
To TYGMYFLFSYVSVCQY belongs 2.3 ± 0.13.
To IRTVAR belongs 0.142 ± 0.38; to NDDVSVSVSWPDMEVRWK, -0.179 ± 0.29.
FDLWLVYVRLPGSHDLDLRA: the amyloid nucleation score amounted to 0.61 ± 0.65.
Substance NFSHHSIYGHVPRPEEQNPM yielded an amyloid nucleation score of 0.481 ± 1.
Substance RRYRVLANISS showed an amyloid nucleation score of 0.66 ± 0.49.
As for CISAVPCM, the amyloid nucleation score was 0.497 ± 0.43.
Substance SYSYDARNCNNTRDGNYNFL had an amyloid nucleation score of -1.99 ± 1.1.
As for SDQNWMVPQDGPSPTSYLDD, the amyloid nucleation score was -0.102 ± 1.5.
As for DRLVDTNYRASGYPVRYMVS, the amyloid nucleation score was -1.31 ± 0.78.
IERKLCKIGVMK showed an amyloid nucleation score of 0.597 ± 0.65.
The substance RHIVFDRPSISFWLKSRKRR came in with an amyloid nucleation score of 0.501 ± 0.64.
YYPVKSFELGWSHLGGKHWA came in with an amyloid nucleation score of 1.34 ± 0.7.
In the case of FWSLYD, the amyloid nucleation score turned out to be 0.003 ± 0.4.
With ECVKTVTLVNYRVLRWSSVC, the amyloid nucleation score stood at 0.129 ± 0.35.
As for FQGRNYECIFVDFLRSQKGV, the amyloid nucleation score stood at 0.292 ± 1.2.
In the case of CIILKTIPIIDY, the amyloid nucleation score result was “inactive”.
Substance CWGLLSGDCHALEKFNRFYL showed an amyloid nucleation score of -0.086 ± 0.48.
For QTLDRNNARSSDNGCSVGGA, the amyloid nucleation score is -0.476 ± 1.9.
To HLCVTTGSSLL belongs -0.58 ± 0.98; to YFVLALWFIGCYECLYLWLC, 1.21 ± 0.59.
TGDDSYDVLLVGLVKTSGVY displayed an amyloid nucleation score of -0.234 ± 0.34.
With VYVVGLFQLVSITFLCRITV, the amyloid nucleation score amounted to 0.153 ± 0.22.
As for NRAMQVFPI, the amyloid nucleation score result is “inactive”.
For GNVIGGNMVVQWYSFCTVCV the value was 6.342 ± 0.062; for GSNDPSVLTAVVLMLLKHRG, 2.04 ± 0.35; for RRGGDSMDYNCFSARSRAFM, -0.146 ± 0.71.
The substance NNRKYLGRNMAANWGAWFKR showed an amyloid nucleation score of -0.395 ± 0.36.
Substance FLYSSLFDKVNCCNRPPVSS yielded an amyloid nucleation score of -0.014 ± 0.7.
With LSMRWYTSPFAFGIS, the amyloid nucleation score is -0.114 ± 0.88.
The substance TRTESVMVLWRRMAVGGCGR had an amyloid nucleation score of 0.362 ± 0.65.
On to NWGVSNRVVWGRVPMLSVPH, for which the amyloid nucleation score was -0.284 ± 0.98.
For the substance YDFTDFPSPTFRYFVLIGNA, the amyloid nucleation score came to 0.333 ± 0.54.
Turning to YATDCLLVSFGTSGECIHRL, the amyloid nucleation score result is “inactive”.
For LGQLNFLMWYPKYECRIYMG the value was 6.656 ± 0.058; for WRSSHNDKMSY, -0.889 ± 0.46; for CRIVKARDGC, -1.23 ± 2.4.
Substance SISVNTFLRPQLRWM had an amyloid nucleation score of 6.509 ± 0.061.
GMSGYKKFCSGIWWSLNQCS: the amyloid nucleation score was 0.408 ± 0.42.
For AVVCVIIFYVNDRLYGCNLS, the amyloid nucleation score is 0.395 ± 0.23.
Substance ILLLVSISMVKESDQWLING registered an amyloid nucleation score of -0.519 ± 0.51.
For IHGSRCVPKSQD the value was 0.201 ± 0.38.
On to NSMANREYGYIELDWV, for which the amyloid nucleation score result was “inactive”.
WDTTVWMIPFNARVFFVGLC: the amyloid nucleation score is -0.083 ± 0.35.
Take TFRRFGYTELYCGENSLLEC: the amyloid nucleation score was -0.036 ± 0.84.
GGESQFLGFTHCKLAFCSWW: the amyloid nucleation score was 0.236 ± 0.5.
Substance YLCQRHSFTRSRYHFLLRPV returned an amyloid nucleation score of -1.02 ± 1.2.
The substance PRCNSFNSYCFA came in with an amyloid nucleation score of 0.224 ± 0.29.
IRVSFIVQSCILSALEDALN came in with an amyloid nucleation score of 2.68 ± 0.13.
As to AVKEGWLFSQVVVERGWNL, the amyloid nucleation score is -0.588 ± 0.63.
RYTFQFNYV: the amyloid nucleation score was found to be 0.224 ± 0.38.
In turn, KLFGTAYS yielded an amyloid nucleation score of -0.847 ± 0.96.
Turning to TWIMIGDHFVAGLGYRERD, the amyloid nucleation score was -0.893 ± 0.43.
VWYVLMSSSVTYYLSR returned an amyloid nucleation score of -0.075 ± 0.55.
Regarding CCSRGLKVPDANRASKSGCE, the amyloid nucleation score worked out at 1.08 ± 0.52.
In turn, NLSSTEYAFNISDGEKRHED had an amyloid nucleation score of 0.186 ± 0.9.
For the substance TFMNRLPMNLDLLIGLTCNL, the amyloid nucleation score was 0.492 ± 0.38.
Consider SGMGMSPLMMIWCRSSNRDL, for which the amyloid nucleation score entry is “inactive”.
Substance MISFCSSWKLEQYEWWRRNL had an amyloid nucleation score of 1.35 ± 0.32.
For AVSSVVPGTCL the value was 0.55 ± 0.68; for PFCSGALLARLG, 0.047 ± 0.77.
STFSSVTGYKPCY: the amyloid nucleation score was determined as 0.551 ± 1.2.
On to RSNTRCAFKNFIFSMTCAFK, for which the amyloid nucleation score worked out at 0.823 ± 0.5.
In the case of ENQPVPLQDLKGAV, the amyloid nucleation score was -0.352 ± 1.2.
CCLTILSIS: the amyloid nucleation score is -0.281 ± 0.31.
The substance IHKAKISWFLCYMLDDT returned an amyloid nucleation score of 0.097 ± 0.33.
To INLCVPPRNVLFIDRCWTVV belongs 1.29 ± 0.3.
MYETWFTFRWKLTDI: the amyloid nucleation score was -0.007 ± 0.39.
With GGLRWRRCFLP, the amyloid nucleation score is -1.58 ± 0.93.
As for IFCYMNYGS, the amyloid nucleation score was found to be 0.554 ± 0.51.
In turn, GHHLSVWRSNSCSCVWSITD returned an amyloid nucleation score of -0.184 ± 0.4.
For TYGEYRTYISYH the value was 0.389 ± 0.43; for CIIVFPISTPWAQGSYIRIQ, 0.041 ± 1.2; for SYQLSSVMDLAWMTHSTFGS, 1.8 ± 0.2.
Take KNFDHVKDHIVFQVL: the amyloid nucleation score was -1.27 ± 1.
In turn, HFYFIYCSQIQVFKQV registered an amyloid nucleation score of 7.422 ± 0.065.
For SGYDDFWMTWTAKRVWHRAR the value was -0.436 ± 0.64.
For YYEAGQEPVNGMCSP the value was 0.07 ± 1.1; for LCALVRICFPMADYEGRGGC, 2.33 ± 0.14.
WSTFYLFLSLDWKNYT: the amyloid nucleation score entry was “inactive”.

The record behind these values is the supplement of paper PMC12042874.
